Positions count from the first letter of the chain named.

The target in experiment [1] is T1, streptavidin-R-phycoerythrin (UniProt P22629 37-163, limits assumed).
T1 construct: Bought conjugate; also called SA-PE; fluorescently-conjugated streptavidin probe
Briefly: flow cytometry of E. coli displaying the construct, 100 nM SA-PE; 50 minutes of expression. (In general: In flow cytometry, cells or beads pass a laser one at a time.)

Experiment [2] concerns the target T2, biotinylated C-reactive protein (UniProt P02741 19-224, biotinylated).
T2 construct: also called CRP; biotinylated CRP
T2 sequence (looked up): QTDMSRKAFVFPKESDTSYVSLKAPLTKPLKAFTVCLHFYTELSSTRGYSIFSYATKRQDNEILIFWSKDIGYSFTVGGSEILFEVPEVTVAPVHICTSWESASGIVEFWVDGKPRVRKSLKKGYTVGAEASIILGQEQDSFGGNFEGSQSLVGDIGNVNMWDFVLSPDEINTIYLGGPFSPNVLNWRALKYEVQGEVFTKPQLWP
The experiment is described as follows: flow cytometry of E. coli displaying the construct, 100 nM biotinylated CRP then 10 nM SA-PE; 30 minutes of expression; reference CPX display.

Experiment [3] addresses T1, streptavidin-R-phycoerythrin. The experiment is described as follows: flow cytometry of E. coli displaying the construct, 100 nM SA-PE; 25 minutes of expression.
The target is the same in experiment [4]. Briefly: flow cytometry of E. coli displaying the construct, 100 nM SA-PE; 30 minutes of expression. On the procedure: To compare the display level of CPX and eCPX as a function of time of CPX and eCPX, cells were subcultured 1:50 from overnight stocks into 5 mL LB Cm and grown for 2 hours shaking (250 rpm) at 37° C. The cells were then moved to room temperature (22° C.) to equilibrate and induced with 0.04% (w/v) L-arabinose still shaking at 250 rpm. Five μL samples were taken prior to induction, 30, 60, and 90 minutes after induction then added to 50 μL of 100 nM SA-PE in PBS and incubated on ice for 45 minutes. After which the cells were centrifuged (3000 g, 5 min), supernatant removed, and resuspended in 500 μL ice cold PBS. Cells were immediately analyzed with a […] using 488 nm excitation and collected fluorescence data at 576 nm.
The cell surface display level of SApep was measured at incremental times after induction of expression for these three scaffolds. […] The level of display was measured before and after 30, 60, and 90 minutes of induction using flow cytometry (FIG. 1). […] After only 30 minutes of expression, the level of display of eCPX-nSApep was 50-fold above background autofluorescence.

Experiment [5] addresses T3, biotinylated vascular endothelial growth factor (UniProt P15692-4 27-191, limits assumed).
T3 construct: also called VEGF; biotinylated VEGF
Briefly: flow cytometry of E. coli displaying the construct, 65 nM biotinylated VEGF then 10 nM SA-PE; reference CPX display.

T1 sequence (P22629 37-163 limits assumed): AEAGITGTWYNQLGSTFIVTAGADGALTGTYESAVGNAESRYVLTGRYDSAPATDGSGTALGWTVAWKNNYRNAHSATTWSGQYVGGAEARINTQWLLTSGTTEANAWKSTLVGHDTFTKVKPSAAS
T3 sequence (P15692 other isoform, or with tags, fused parts or gaps limits assumed): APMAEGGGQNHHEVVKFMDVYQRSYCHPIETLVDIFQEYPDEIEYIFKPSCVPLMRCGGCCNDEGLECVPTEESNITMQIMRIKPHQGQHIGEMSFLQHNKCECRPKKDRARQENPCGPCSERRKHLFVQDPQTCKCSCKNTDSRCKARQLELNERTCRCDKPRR

B1: CPX-5X-1 displaying SApep at the N-terminus (other)
chain: GQSGQAECHPQGPPCIEGRKGGQSGQSGDYNKNQYYGITAGPAYRINDWASIYGVVGVGYGKFQTTEYPTYKHDTSDYGFSYGAGLQFNPMENVALDFSYEQSRIRSVDVGTWIAGVGYRFGRTRKATSTVTGGYAQSDAQGQMNKMGGFNLKYRYEEDNSPLGVIGSFTYTEKSRTAS
With B1, the “Relative Display level (fold fluorescence above background)” value in experiment [1] worked out at 24 fold above background.

B2: CPX-5X-2 displaying SApep at the N-terminus (other)
chain: B1 chain with T124K, K126N
Turning to B2, the “Relative Display level (fold fluorescence above background)” value in experiment [1] amounted to 22 fold above background.

B3: CPX-5X-4 displaying SApep at the N-terminus (other)
chain: B1 chain with G116S, R123S, T124Q, R125S
On to B3, for which the “Relative Display level (fold fluorescence above background)” value in experiment [1] amounted to 36 fold above background.

B4: CPX-5X-3 displaying SApep at the N-terminus (other)
chain: B1 chain with A115V, R123A, K126R
On to B4, for which the “Relative Display level (fold fluorescence above background)” value in experiment [1] was 32 fold above background.

B5: CPX-3X-3 displaying SApep at the N-terminus (other)
chain: GQSGQAECHPQGPPCIEGRKGGQSGQSGDYNKNQYYGITAGPAYRINDWASIYGVVGVGYGKFQTTEYPTYKHDTSDYGFSYGAGLQFNPMENVALDFSYEQSRIRSVDVGTWIAGVGYRFGTKATSTVTGGYAQSDAQGQMNKMGGFNLKYRYEEDNSPLGVIGSFTYTEKSRTAS
As for B5, the “Relative Display level (fold fluorescence above background)” value in experiment [1] was 7.1 fold above background.

B6: CPX-3X-4 displaying SApep at the N-terminus (other)
chain: B5 chain with T123K
In the case of B6, the “Relative Display level (fold fluorescence above background)” value in experiment [1] worked out at 10 fold above background.

B7: eCPX displaying the CRP binding peptide (CRPpep) at the N-terminus (other)
chain: GQSGQEWACNDRGFNCQLQRGGQSGQSGDYNKNQYYGITAGPAYRINDWASIYGVVGVGYGKFQTTEYPTYKHDTSDYGFSYGAGLQFNPMENVALDFSYEQSRIRSVDVGTWILSVGYRFGSKSRRATSTVTGGYAQSDAQGQMNKMGGFNLKYRYEEDNSPLGVIGSFTYTEKSRTAS
notes: Disulfide-constrained peptide; also called CRP-1
As to B7, the “fold higher fluorescence labeling than for CPX” value in experiment [2] is around 50 fold.

B8: CPX-L2-10 displaying SApep at the N-terminus (other)
chain: GQSGQAECHPQGPPCIEGRKGGQSGQSGDYNKNQYYGITAGPAYRINDWASIYGVVGVGYGKFQTTEYPTYKHDTSDYGFSYGAGLQFNPMENVALDFSYEQSRIRSVDVGTWIISVGYRFHRGYHAQRATSTVTGGYAQSDAQGQMNKMGGFNLKYRYEEDNSPLGVIGSFTYTEKSRTAS
Turning to B8, the “Relative Display level (fold fluorescence above background)” value in experiment [3] is 33 fold above background.

B9: CPX-L2-3 displaying SApep at the N-terminus (other)
chain: GQSGQAECHPQGPPCIEGRKGGQSGQSGDYNKNQYYGITAGPAYRINDWASIYGVVGVGYGKFQTTEYPTYKHDTSDYGFSYGAGLQFNPMENVALDFSYEQSRIRSVDVGTWIISVGYRFGTRGSQATSTVTGGYAQSDAQGQMNKMGGFNLKYRYEEDNSPLGVIGSFTYTEKSRTAS
In the case of B9, the “Relative Display level (fold fluorescence above background)” value in experiment [3] was determined as 29 fold above background.

B10: CPX-L2-7 displaying SApep at the N-terminus (other)
chain: B9 chain with I115V, R124H, G125N
With B10, the “Relative Display level (fold fluorescence above background)” value in experiment [3] came out at 26 fold above background.

B11: CPX-L2-9 displaying SApep at the N-terminus (other)
chain: B9 chain with T123P, R124H, G125N, Q127R
Regarding B11, the “Relative Display level (fold fluorescence above background)” value in experiment [3] turned out to be 23 fold above background.

B12: CPX-6X-2 displaying SApep at the N-terminus (other)
chain: B9 chain with I115A, S116G, T123R, G125H, S126Y, Q127K
Consider B12, for which the “Relative Display level (fold fluorescence above background)” value in experiment [1] was found to be 28 fold above background.

B13: CPX-L2-5 displaying SApep at the N-terminus (other)
chain: B9 chain with T123D, G125K, S126R, Q127R
On to B13, for which, in experiment [3], the “Relative Display level (fold fluorescence above background)” value was 28 fold above background.

B14: CPX-6X-1 displaying SApep at the N-terminus (other)
chain: B9 chain with I115A, S116G, R124K, G125R, S126Y, Q127H
Consider B14, for which the “Relative Display level (fold fluorescence above background)” value in experiment [1] is 35 fold above background.

B15: CPX-6X-4 displaying SApep at the N-terminus (other)
chain: B9 chain with I115A, T123S, R124K, G125Q, Q127K
Take B15: the “Relative Display level (fold fluorescence above background)” value in experiment [1] was found to be 38 fold above background.

B16: CPX-L2-8 displaying SApep at the N-terminus (other)
chain: B9 chain with I115V, T123P, R124N, G125K, Q127R
Turning to B16, the “Relative Display level (fold fluorescence above background)” value in experiment [3] was determined as 17 fold above background.

B17: CPX-6X-3 displaying SApep at the N-terminus (other)
chain: B9 chain with I115A, S116G, T123N, G125R, S126H, Q127R
With B17, the “Relative Display level (fold fluorescence above background)” value in experiment [1] is 24 fold above background.

B18: CPX-L2-2 displaying SApep at the N-terminus (other)
chain: B9 chain with I115F, T123R, R124K, G125N, Q127H
As for B18, the “Relative Display level (fold fluorescence above background)” value in experiment [3] worked out at 19 fold above background.

B19: CPX-L2-6 displaying SApep at the N-terminus (other)
chain: B9 chain with I115V, S116A, T123A, S126R, Q127H
Consider B19, for which the “Relative Display level (fold fluorescence above background)” value in experiment [3] was determined as 24 fold above background.

B20: CPX-L2-1 (enhanced CPX, eCPX) displaying SApep at the N-terminus (other)
chain: B9 chain with I115L, T123S, R124K, G125S, S126R, Q127R
notes: also called eCPX-nSApep
On to B20, for which the “Relative Display level (fold fluorescence above background)” value in experiment [3] was 33 fold above background. Moreover, in experiment [4], the “level of display (fold above background autofluorescence)” value is 50 fold above background.

B21: CPX-L2-4 displaying SApep at the N-terminus (other)
chain: B9 chain with I115L, T123H, G125S, S126H, Q127R
B21: in experiment [3], the “Relative Display level (fold fluorescence above background)” value is 27 fold above background.

B22: eCPX displaying the VEGF binding peptide at the N-terminus (other)
chain: GQSGQVEPNCDIHVMWEWECFERLGGQSGQSGDYNKNQYYGITAGPAYRINDWASIYGVVGVGYGKFQTTEYPTYKHDTSDYGFSYGAGLQFNPMENVALDFSYEQSRIRSVDVGTWILSVGYRFGSKSRRATSTVTGGYAQSDAQGQMNKMGGFNLKYRYEEDNSPLGVIGSFTYTEKSRTAS
notes: Disulfide-constrained 19-mer; also called V114
B22: in experiment [5], the “fold more efficient display than CPX” value is above 3 fold.

B23: CPX-4X-1 displaying SApep at the N-terminus (other)
chain: GQSGQAECHPQGPPCIEGRKGGQSGQSGDYNKNQYYGITAGPAYRINDWASIYGVVGVGYGKFQTTEYPTYKHDTSDYGFSYGAGLQFNPMENVALDFSYEQSRIRSVDVGTWIAGVGYRFGSKRATSTVTGGYAQSDAQGQMNKMGGFNLKYRYEEDNSPLGVIGSFTYTEKSRTAS
In the case of B23, the “Relative Display level (fold fluorescence above background)” value in experiment [1] was 18 fold above background.

B24: CPX-4X-2 displaying SApep at the N-terminus (other)
chain: B23 chain with S123R, K124Q, R125K
As to B24, the “Relative Display level (fold fluorescence above background)” value in experiment [1] came to 14 fold above background.

B25: CPX with the streptavidin binding peptide fused to the N-terminus (pB33CPX-SApep) (other)
chain: B23 chain with S123G, K124S, R125G
notes: also called parent CPX scaffold
As for B25, the figures for the “Relative Display level (fold fluorescence above background)” value in experiment [3] and in experiment [1] were 1.5 fold above background and 2.3 fold above background, respectively.

B26: CPX-4X-4 displaying SApep at the N-terminus (other)
chain: B23 chain with A115V, G122P, S123R, R125S
In the case of B26, in experiment [1], the “Relative Display level (fold fluorescence above background)” value stood at 22 fold above background.

B27: CPX-4X-3 displaying SApep at the N-terminus (other)
chain: B23 chain with G122S, S123W, K124P, R125N
Regarding B27, the “Relative Display level (fold fluorescence above background)” value in experiment [1] amounted to 15 fold above background.

These data come from US20160010082A1 (University of California, published 2016).
